In doi:10.1101/2024.05.21.594841:
Values joined by “and” are separate entries in the source; they are usually repeats but may differ in a detail not shown here. Identical values can stand only once.

Biological target: these 5 target proteins
Test: split reporter

B1: Lhs1p (natural protein)
chain: AVLGVDYGQQNIKAIVVSPQAPLELVLTPEAKRKEISGLSIKRLPGYGKDDPNGIERIYGSAVGSLATRFPQNTLLHLKPLLGKSLEDETTVTLYSKQHPGLEMVSTNRSTIAFLVDNVEYPLEELVAMNVQEIANRANSLLKDRDARTEDFVNKMSFTIPDFFDQHQRKALLDASSITTGIEETYLVSEGMSVAVNFVLKQRQFPPGEQQHYIVYDMGSGSIKASMFSILQPEDTTQPVTIEFEGYGYNPHLGGAKFTMDIGSLIENKFLETHPAIRTDELHANPKALAKINQAAEKAKLILSANSEASINIESLINDIDFRTSITRQEFEEFIADSLLDIVKPINDAVTKQFGGYGTNLPEINGVILAGGSSRIPIVQDQLIKLVSEEKVLRNVNADESAVNGVVMRGIKLSNSFKTKPLNVVDRSVNTYSFKLSNESELYDVFTRGSAYPNKTSILTNTTDSIPNNFTIDLFENGKLFETITVNSGAIKNSYSSDKCSSGVAYNITFDLSSDRLFSIQEVNCICQSENDIGNSKQIKNKGSRLAFTSEDVEIKRLSPSERSRLHEHIKLLDKQDKERFQFQENLNVLESNLYDARNLLMDDEVMQNGPKSQVEELSEMVKVYLDWLEDASFDTDPEDIVSRIREIGILKKKIELYMDSAKEPLNSQQFKGMLEEGHKLLQAIETHKNTVEEFLSQFETEFADTIDNVREEFKKIKQPAYVSKALSTWEETLTSFKNSISEIEKFLAKNLFGEDLREHLFEIKLQFDMYRTKLEEKLRLIKSGDESRLNEIKKLHLRNFRLQKRKEEKLKRKLEQEKSRNNNETESTVINSADDKTTIVNDKTTESNPSSEEDILHDEL
Question: Which normalized interacting score does the source give for B1 here?
Answer: 83% and 93%
